Our source for the Kd values is article PMC4609182.

This assay deals with T1, Parkin R0RBR module (RING0, RING1, IBR, RING2), wild type (rat), Q9JK66.
T1 chain: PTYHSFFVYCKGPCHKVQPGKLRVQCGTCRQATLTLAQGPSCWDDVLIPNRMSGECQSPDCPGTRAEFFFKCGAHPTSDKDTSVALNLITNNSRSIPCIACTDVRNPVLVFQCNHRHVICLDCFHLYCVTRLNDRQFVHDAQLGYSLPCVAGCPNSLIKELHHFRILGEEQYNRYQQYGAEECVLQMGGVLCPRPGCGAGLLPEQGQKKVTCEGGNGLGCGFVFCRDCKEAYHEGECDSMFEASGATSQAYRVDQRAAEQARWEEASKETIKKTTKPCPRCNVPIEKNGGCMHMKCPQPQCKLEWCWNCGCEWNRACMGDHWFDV
The experiment in a line: ITC; R0RBR (wild type or L266K) titrated with Ubl or pUbl; 20°C; 50 mM Tris–HCl pH 7.4, 150 mM NaCl, 1 mM TCEP; stoichiometry determined experimentally. (In general: Isothermal titration calorimetry measures the heat released or taken up as one component is titrated into another.)

B1: Parkin Ubl domain (ubiquitin-like domain), unmodified (domain or fragment)
chain: MIVFVRFNSSYGFPVEVDSDTSIFQLKEVVAKRQGVPADQLRVIFAGKELQNHLTVQNCDLEQQSIVHIVQRPQRK
modifications: not checked
B1: the Kd (usually the concentration at which binding is half-saturated) worked out at 16 µM.
